In patent US20140056964A1, “GRANZYME B INHIBITOR COMPOSITIONS, METHODS AND USES FOR PROMOTING WOUND HEALING” (THE UNIVERSITY OF BRITISH COLUMBIA, priority 2010, published 2014):

Test system: wild type C57BL/6 mice
Assay: full thickness skin wound in mice, decorin immunohistochemistry of closed wound tissue
Format: in vivo, mouse
Conditions: 1 cm full thickness back wound, 60 μl applied directly onto the wound, 16 days
Experimental: As depicted in FIG. 23, decorin distribution is impacted by serpina3n in closed wound tissue. Seven week old wild type C57BL/6 mice were given a 1 cm diameter full thickness wound on their backs. Mice were then given either saline (upper panels) or the Granzyme B inhibitor, serpina3n (lower panels), by applying 60 μl of the appropriate solution directly onto the wound immediately following the wounding procedure. Wounds were allowed to heal for 16 days, at which point mice were sacrificed and the closed wound tissue harvested. […] Increased decorin throughout the newly formed dermis thus provides more organized collagen, less scarring and increased tensile strength.

B1: serpina3n: the Granzyme B inhibitor, serpina3n; Serpina3n is also known as SerpinA3 (protein, UniProt Q91WP6 21-418, looked up)
Serine protease inhibitor A3N: FPDGTLGMDAAVQEDHDNGTQLDSLTLASINTDFAFSLYKELVLKNPDKNIVFSPLSISAALAVMSLGAKGNTLEEILEGLKFNLTETSEADIHQGFGHLLQRLNQPKDQVQISTGSALFIEKRQQILTEFQEKAKTLYQAEAFTADFQQPRQAKKLINDYVRKQTQGMIKELVSDLDKRTLMVLVNYIYFKAKWKVPFDPLDTFKSEFYAGKRRPVIVPMMSMEDLTTPYFRDEELSCTVVELKYTGNASALFILPDQGRMQQVEASLQPETLRKWKNSLKPRMIDELHLPKFSISTDYSLEDVLSKLGIREVFSTQADLSAITGTKDLRVSQVVHKAVLDVAETGTEAAAATGVKFVPMSAKLYPLTVYFNRPFLIMIFDTETEIAPFIAKIANPK
decorin distribution (immunohistochemistry) in newly formed dermis: intense decorin staining near the dermal-epidermal junction but also demonstrated intense decorin staining deeper into the dermis
